Measurements reported in paper PMC6704107 (2019).

B1: Adeno-associated virus receptor (AAVR), wild-type, PKD1-5 domains [not stated] / Adeno-associated virus 1 (AAV1) particle, wild-type capsid [adeno-associated virus 1 (AAV1)] (parent complex)
chain 1: MEKRLGVKPNPASWILSGYYWQTSAKWLRSLYLFYTCFCFSVLWLSTDASESRCQQGKTQFGVGLRSGGENHLWLLEGTPSLQSCWAACCQDSACHVFWWLEGMCIQADCSRPQSCRAFRTHSSNSMLVFLKKFQTADDLGFLPEDDVPHLLGLGWNWASWRQSPPRAALRPAVSSSDQQSLIRKLQKRGSPSDVVTPIVTQHSKVNDSNELGGLTTSGSAEVHKAITISSPLTTDLTAELSGGPKNVSVQPEISEGLATTPSTQQVKSSEKTQIAVPQPVAPSYSYATPTPQASFQSTSAPYPVIKELVVSAGESVQITLPKNEVQLNAYVLQEPPKGETYTYDWQLITHPRDYSGEMEGKHSQILKLSKLTPGLYEFKVIVEGQNAHGEGYVNVTVKPEPRKNRPPIAIVSPQFQEISLPTTSTVIDGSQSTDDDKIVQYHWEELKGPLREEKISEDTAILKLSKLVPGNYTFSLTVVDSDGATNSTTANLTVNKAVDYPPVANAGPNQVITLPQNSITLFGNQSTDDHGITSYEWSLSPSSKGKVVEMQGVRTPTLQLSAMQEGDYTYQLTVTDTIGQQATAQVTVIVQPENNKPPQADAGPDKELTLPVDSTTLDGSKSSDDQKIISYLWEKTQGPDGVQLENANSSVATVTGLQVGTYVFTLTVKDERNLQSQSSVNVIVKEEINKPPIAKITGNVVITLPTSTAELDGSKSSDDKGIVSYLWTRDEGSPAAGEVLNHSDHHPILFLSNLVEGTYTFHLKVTDAKGESDTDRTTVEVKPDPRKNNLVEIILDINVSQLTERLKGMFIRQIGVLLGVLDSDIIVQKIQPYTEQSTKMVFFVQNEPPHQIFKGHEVAAMLKSELRKQKADFLIFRALEVNTVTCQLNCSDHGHCDSFTKRCICDPFWMENFIKVQLRDGDSNCEWSVLYVIIATFVIVVALGILSWTVICCCKRQKGKPKRKSKYKILDATDQESLELKPTSRAGIKQKGLLLSSSLMHSESELDSDDAIFTWPDREKGKLLHGQNGSVPNGQTPLKARSPREEIL
chain 2: MAADGYLPDWLEDNLSEGIREWWDLKPGAPKPKANQQKQDDGRGLVLPGYKYLGPFNGLDKGEPVNAADAAALEHDKAYDQQLKAGDNPYLRYNHADAEFQERLQEDTSFGGNLGRAVFQAKKRVLEPLGLVEEGAKTAPGKKRPVEQSPQEPDSSSGIGKTGQQPAKKRLNFGQTGDSESVPDPQPLGEPPATPAAVGPTTMASGGGAPMADNNEGADGVGNASGNWHCDSTWLGDRVITTSTRTWALPTYNNHLYKQISSASTGASNDNHYFGYSTPWGYFDFNRFHCHFSPRDWQRLINNNWGFRPKRLNFKLFNIQVKEVTTNDGVTTIANNLTSTVQVFSDSEYQLPYVLGSAHQGCLPPFPADVFMIPQYGYLTLNNGSQAVGRSSFYCLEYFPSQMLRTGNNFTFSYTFEEVPFHSSYAHSQSLDRLMNPLIDQYLYYLNRTQNQSGSAQNKDLLFSRGSPAGMSVQPKNWLPGPCYRQQRVSKTKTDNNNSNFTWTGASKYNLNGRESIINPGTAMASHKDDEDKFFPMSGVMIFGKESAGASNTALDNVMITDEEEIKATNPVATERFGTVAVNFQSSSTDPATGDVHAMGALPGMVWQDRDVYLQGPIWAKIPHTDGHFHPSPLMGGFGLKNPPPQILIKNTPVPANPPAEFSATKFASFITQYSTGQVSVEIEWELQKENSKRWNPEVQYTSNYAKSANVDFTVDNNGLYTEPRPIGTRYLTRPL

Variants of: B1
Assay: SPR (BIAcore); parent: 13.9 nM
Variant chain 1 S425A has a Kd of 3.68 µM. In the case of chain 1 T426A, the Kd is reported as 46.9 µM. Work on chain 1 V427A yielded a Kd of 35.8 µM.
